# How the values were obtained:
# psd10_human PSMD10 [1] = molecular target: psd10_human PSMD10 (UniProt O75832)
# psd10_human PSMD10 [2] = molecular target: psd10_human PSMD10 (UniProt O75832); remark: listed apart in the source
# psd10_human PSMD10, sequence (O75832 whole entry): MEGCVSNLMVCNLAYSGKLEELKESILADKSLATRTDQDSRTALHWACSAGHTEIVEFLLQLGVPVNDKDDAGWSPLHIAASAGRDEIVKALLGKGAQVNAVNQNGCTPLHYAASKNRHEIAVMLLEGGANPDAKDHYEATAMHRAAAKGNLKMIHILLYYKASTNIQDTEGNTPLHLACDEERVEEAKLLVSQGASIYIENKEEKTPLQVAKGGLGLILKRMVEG
# Cytoplasmic protein NCK2 (Homo sapiens), O43639 E167A;E168A;D170A, sequence (O43639 whole entry E167A/E168A/D170A): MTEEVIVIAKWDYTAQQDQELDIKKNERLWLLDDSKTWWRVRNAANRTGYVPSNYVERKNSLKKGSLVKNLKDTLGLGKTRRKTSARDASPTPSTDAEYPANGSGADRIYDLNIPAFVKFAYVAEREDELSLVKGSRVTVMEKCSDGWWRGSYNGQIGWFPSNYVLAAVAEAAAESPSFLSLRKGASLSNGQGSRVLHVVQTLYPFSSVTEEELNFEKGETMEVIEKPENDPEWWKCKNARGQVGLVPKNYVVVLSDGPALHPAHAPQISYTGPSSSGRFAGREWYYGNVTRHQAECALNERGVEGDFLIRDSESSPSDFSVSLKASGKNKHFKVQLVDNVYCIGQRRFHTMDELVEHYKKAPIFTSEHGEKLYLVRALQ
effect of a mutation on the interaction (psd10_human PSMD10 [1]),effect of a mutation on the interaction (psd10_human PSMD10 [2]),Substance
disrupting interaction strength,–,Chloride intracellular channel protein 1 (Homo sapiens) (from UniProt O00299) E150A;E151A;D153A
with no effect,–,Chloride intracellular channel protein 1 (Homo sapiens) (from UniProt O00299) V152E
–,disrupting interaction strength,"Cytoplasmic protein NCK2 (Homo sapiens), O43639 E167A;E168A;D170A"
